Results reported in patent US20250049939A1, “NOVEL FLT3 ANTIBODIES AND ANTIBODY-DRUG-CONJUGATES BASED THEREON, THERAPEUTIC METHODS AND USES THEREOF IN COMBINATION WITH TYROSINE KINASE INHIBITORS” (TUBULIS GmbH, priority 2021, published 2025).

T1: FLT3 as expressed on FLT3 positive human leukemia and lymphoma cell lines (e.g. MOLM-13) (human) (UniProt P36888)
T1 sequence (looked up): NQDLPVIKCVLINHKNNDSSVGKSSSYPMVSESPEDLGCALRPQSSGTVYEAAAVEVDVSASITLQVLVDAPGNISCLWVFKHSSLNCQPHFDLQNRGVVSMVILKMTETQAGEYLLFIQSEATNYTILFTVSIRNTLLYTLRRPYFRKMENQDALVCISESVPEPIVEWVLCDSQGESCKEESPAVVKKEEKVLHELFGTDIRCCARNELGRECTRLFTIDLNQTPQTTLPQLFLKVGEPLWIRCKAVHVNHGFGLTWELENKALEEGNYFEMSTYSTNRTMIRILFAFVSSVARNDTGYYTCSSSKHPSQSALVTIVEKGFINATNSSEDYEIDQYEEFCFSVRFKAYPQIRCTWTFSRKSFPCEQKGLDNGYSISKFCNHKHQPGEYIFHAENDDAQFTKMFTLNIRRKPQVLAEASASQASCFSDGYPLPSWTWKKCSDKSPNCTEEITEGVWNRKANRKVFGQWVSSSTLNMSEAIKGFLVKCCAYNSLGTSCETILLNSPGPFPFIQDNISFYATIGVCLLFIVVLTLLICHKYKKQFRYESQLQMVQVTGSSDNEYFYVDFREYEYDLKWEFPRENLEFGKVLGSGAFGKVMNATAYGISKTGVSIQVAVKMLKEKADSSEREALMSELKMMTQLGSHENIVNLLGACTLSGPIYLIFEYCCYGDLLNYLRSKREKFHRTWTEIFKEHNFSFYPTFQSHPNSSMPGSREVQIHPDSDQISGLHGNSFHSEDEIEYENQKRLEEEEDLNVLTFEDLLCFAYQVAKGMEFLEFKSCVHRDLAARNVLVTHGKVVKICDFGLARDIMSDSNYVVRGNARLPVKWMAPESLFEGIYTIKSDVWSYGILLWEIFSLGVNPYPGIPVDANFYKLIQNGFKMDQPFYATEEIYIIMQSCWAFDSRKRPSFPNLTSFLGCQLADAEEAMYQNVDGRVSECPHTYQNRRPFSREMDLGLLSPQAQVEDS

B1: 19H5 chimeric anti-FLT3 monoclonal antibody (antibody, V domains shown)
VH: MVQPSQTLSLTCTVSGFSLTSYNVNWVRQPPGKGLEWIGAMWRGGGTDYNPALKSRLSISRDTSKSQVFLKMNRLQTEDTAIYFCTRGFGDYWGQGVMVTVSS
VL: DVQMTQSPSSMSASLGDRVTFTCQASQDIGNNLIYFQQKPGKSPRRMICCATNLAHGVPSRFSGSRSGSDYSLTLVSLESEDVADYHCLQYEHYPRTFGGGTKLELKR
B2: deglycosylated 20D9-ADC (antibody, V domains shown)
VH: DVMLVESGGGLVQPGRSLKLSCVASGFTFNNYWMTWIRQAPGKGLEWIASITKTGGGTYYPDSVKGRFTISRDNAKSTLYLQMNSLRSEDTATYYCTTLQQLGVMDAWGQGASVTVSS
VL: DVQMTQSPSVLSASVGDRITLNCKASQNINKELNWYQQKLGEAPKLLIYNTNNLQTGIPSRFSGSGSGTDYTLTISSLQPEDVATYFCFQHKSWPLTFGSGTKLEIKR

How the values were obtained:
[1] = biological target: recombinant human FLT3 protein (human) (UniProt P36888); assay: ELISA on recombinant human FLT3, normalized to BSA control
[2] = biological target: T1, FLT3 as expressed on FLT3 positive human leukemia and lymphoma cell lines (e.g. MOLM-13) (human); assay: cell-based or functional assay

Binder	Kd [1]	IC50 of cytotoxicity in MOLM-13 cells, 96 h, resazurin [2]
B1	0.134 µg/mL	
B2		0.474 µg/mL
